Measurements from the DeepSol protein solubility set.

Experiment: soluble on expression in E. coli; label from the status in PepcDB or PDB records

Row | Sequence | soluble on expression in E. coli
1 | MGSDKIHHHHHHMGEAIVITSGKGGVGKTTTSANLGTALAILGKRVCLVDTDIGLRNLDVVMGLENRIIYDLVDVVEGRCKMHQALVKDKRFDDLLYLMPAAQTSDKTAVAPEQIKNMVQELKQEFDYVIIDCPAGIEQGYKNAVSGADKAIVVTTPEISAVRDADRIIGLLEQEENIEPPRLVVNRIRNHLMKNGDTMDIDEIVQHLSIDLLGIVADDDEVIKASNHGEPIAMDPKNRASIAYRNIARRILGESVPLQVLEEQNKGMMAKIKSFFGVRS | not soluble
2 | MAHHHHHHMSSKRTEGTAADEERRRTSAASSGSSSVSSTDSDEASSSVSDSSSSGSGSSSDSESSDSERPSSTPQRQSAAAAERATSTQQLQQQRHVQLNPELRFERPDKEYIPLPPLRDMQDMVKVLFLLSTDKKRYPDGRHRTLDYFRVAVEMFVTEVRQEYKRQYQQAQRNGRAMQRFTWKNSGELAICFACCCDNVKLLYDSLQPGPLKPLWDAFVGQLPPMLIVQSRVPETMLSSQTYHTKYMDWVKGGTRYGGEQSTANVRFPSVADRRVKVETYLRSGAGYKIEAVQVGSTPAAPAAVPAAVAPRPSLAAAAAPMQALETRAPFAGRLPGTGSAKVPVAPGVGGPRPPVKVPMKHVGGGVAHGSVTTAAAPPLASTSVKQMPPEMKHLFWLSVLAHVKGGEASRAFPDDRLEALPGLLRLCEMTEHTEEMCILMDVLAASSSGVQTVFERLGGLLSFRRFASHFIQSEEAEPLMQLVEQLARWRVAAWGSTSQQAWQTDMNQRRTRDLMWLRTLPLIPEAKRAAWGALLLVMEQRYIFKAPRPDDTTAVDNPLKRRRSEVELGDLHAVLSDNVDMQRWVVPRVNVFSAVRLPVELRVPPLCTKLEENTVRFLNAKREYAEKMQVTWRERLEKILSAQPRAPGPAVPVPLWYDPYALLRVASPQP | soluble
3 | MIITEKRHELILEELSHKDFLTLQELIDRTGCSASTIRRDLSKLQQLGKLQRVHGGAMLKENRMIEANLTEKLATNLDEKKMIAKIAANQINDNECLFIDAGSSTLELIKYIQAKDIIVVTNGLTHVEALLKKGIKTIMLGGQVKENTLATIGSSAMEILRRYCFDKAFIGMNGLDIELGLTTPDEQEALVKQTAMSLANQSFVLIDHSKFNKVYFARVPLLESTTIITSEKALNQESLKEYQQKYHFIGGTLLEHHHHHH | soluble
4 | MNVFKTQTLLCPSGVHSRPEDHDETPFLCSKAQSVTVVAFLVARLLATLATHQMTSHTEGLRKGGGRKDTQLMKGQCSAIKVIFWPGCLPQPRMHSRLHIRSINKGGQLRPTGCNK | soluble
5 | MLNSFKLSLQYILPKLWLTRLAGWGASKRAGWLTKLVIDLFVKYYKVDMKEAQKPDTASYRTFNEFFVRPLRDEVRPIDTDPNVLVMPADGVISQLGKIEEDKILQAKGHNYSLEALLAGNYLMADLFRNGTFVTTYLSPRDYHRVHMPCNGILREMIYVPGDLFSVNHLTAQNVPNLFARNERVICLFDTEFGPMAQILVGATIVGSIETVWAGTITPPREGIIKRWTWPAGENDGSVALLKGQEMGRFKLGSTVINLFAPGKVNLVEQLESLSVTKIGQPLAVSTETFVTPDAEPAPLPAEEIEAEHDASPLVDDKKDQVMGHHHHHHSH | not soluble
6 | MGHHHHHHSHYHVYWLEMVLFYRAHFGTDETILDGKEYDIYVSYARNAEEEEFVLLTLRGVLENEFGYKLCIFDRDSLPGGIVTDETLSFIQKSRRLLVVLSPNYVLQGTQALLELKAGLENMASRGNINVILVQYKAVKETKVKELKRAKTVLTVIKWKGEKSKYPQGRFWKQLQVAMPVKKSPRRSSS | soluble
7 | MHECKTVTLRTRPLKGRMMSFYLDYYPGYRDKETMKVIRHESLGIYIYANPRNKREQNFNEVMTEKAEAIRCRRFESVVNERYDFFDKYKLKADFLEYYRKQLRKHDQKWEFVYLHFNNFVHGKCTFEEIDIDLCNKFREYLLSAKKLRRNGRITRNSASGYWSTFRGFLKILYRNGMIKTNVNDFLEKIETEDVMKEALSVEELYKLAETPCKKPILKTASLFSCMTSLRISDILSLCWEDIVDYSAGGKCVHIITQKNKAEDIIPISEEALGLIGYSSEKKGLVFKGLMRSWTQIPMKEWI | not soluble
8 | RFNLFNYREATLIADYGHNPDAMEALVCAIDHIPAKKRTVVISAAGDRRNEDIRLQTRILGDVFDEVVLFQDKCQRGRADGEVLGLLREGLENAKRVRKVSEIRGEFKAIDTALTNLEAGELCLILIDQ | not soluble
9 | MSLDNKRIEELKEVLKSLNKIGITEELRKEALDIVKNINPIELSIAEQQLIEEGMNPQDLRHLCDIHMEVLKDELTKVKASTSKGHVLYTLIEEHDKILDFLKELEEVNSNIQKTENYDEAKDETHRLYNLAESILDAENHHQREEKVLFLEMEKREITGPTRIMKMEHDDLRAKKKELKMLSKSVDTMDFREFKSKVDEVSKYIIFNLRDHIFKENYILYPSALEAIKDKDMWDDMKRRCDEVGYCSFTFSNEGHHHHHH | soluble
10 | MAHHHHHHMSEREHDETPVTAEGSAAAHEGSNMDLNGNESRASYIKTDLGELNMIESMCPKCQETGTTRLMITSIPHFKEIIVSSFECQHCGEVNNEVAFGGTFGPKRVRYELQVRSKQDLDRQVVKSEFATIAIPELELEIPPESQKGNLNTIEGVLEQTYSGLQLQQPLRKIQHPDVYEKIEAFCAKLASFRSGDVPFTLTLDDPAGNSYIEPIHDYYHPTLDPQLTKYEKERTEIDRQLLGIALDYNTERTQEEEKDVEEGQFSDVTQILCDCPACRRPGYIMMHECDIPYFKQTIIMAFKCEYCGYKSNEIKAGGEINAKGLRLVLHVTSEADLKRDVLKSDTATLIIPEVRLELAPGTLGGFFSTVEGTITQVRDQLMNLPQAAFAAGDSADDNSKTMLEFVKELDELLALREEFTFILDDPLGNVYIQNPCSHLPPPDDVDPKLEREEYTRTEEQDEELGILSMRHNEGQAGIEKSEDEADHEGEERNGAAAEEQETQQ | soluble
11 | MVKSIVILIETVTMKIPAVYSDGSFKTFNDSETTAQKLVDSGVVNTFAFGPTLVENGKVAVSENEEVGQDMADNPRTAIVVNEESDRSVHYIVIVSDGRTSESSGLTLYEMAELMKSYGVMTGYNLDVGDSSTMYSLEHHHHHH | not soluble
12 | MVKKSYVINWARDLANRGVGVNYDGAFGSQCVDLPFWILGKFFGRPISGNAIDLLNSAKAAGYQVIYDAPGVNPRVGDIFVMHSIAYDGKDYGHTGLVIEDSDGHSIKTIEQNVDGNADNLYVGGPARYRTRSFNGIIGWIRPPYENEILENKREETDMRDFFVITNSEYTFAGVHYAKGAVLHVSPTQKRAFWVIADQENFIKQVNKNIEYVEKNASPAFLQRIVEIYQVKFEGKNVH | soluble
13 | MKSITQLENKKVLVLGLAKSGEAAARLLAKLGAIVTVNDGKAFEENPSAQSLLEEGIKVVCGGHPLELLDENFELMVKNPGIRYDNPMVARALEKEIPVWTEVELAYLVSEAPIIGITGSNGKTTTTTMIADVLNHGGKSGVLSGNIGFPASEVAQSVTNQDTLVMELSSFQLMGIESFHPHIAVITNLMPTHIDYHGSFEEYVAAKWNIQNEMTSDDFIILNFNQDLAKELATQTNAQVVPFSTVEKVDGAYLENGGLYFKGELLMHADELGVPGSHNVENALATIAVAKLSGVSNQAIKETLSSFGGVKHRLQFVDTIDDVKFYNDSKSTNILATQKALSGFDNSKVILIAGGLDRGNEFDELIPDITGLKKMVILGESAPRVKRAADKAGVTYLDAKDVADATRIAFEQASAGDVVLLSPANASWDMYKNFEVRGDEFITTVERLKG | not soluble
14 | MGSDKIHHHHHHMMCFSCRVTSDAKVVFLDVIPTPQDIISDFSYICLLLTIKFEYMENISRRTAIKTFLAGGVALATTGIEAAAAAKKKTDVKEPLKGNVRHSVSKWCFGDYKLDEFCEICKHIGIESVELLDPVDWPIVQKHGLTVAMAQGAGLGIDRGFNDPALHDELVASYEKVIPMVADAGLTNLICFSGRRNGVTDLQGWENCEKGLKRLIPLAEKHKVVLTMELLNSVGHKDYLCDHTVWGAELCRRIGSPNFKLLYDIYHMQIMEGNIIENIRKYHPYFSHVHTGGSPGRAEIDETQELYYPAIIKALMETGYKGFVGQEFVPAQEDKIASLEKCIRICDV | not soluble
15 | MGSDKIHHHHHHMDSSCSPKHGWFDSVAESYAQQRPYYPESLFTWISSKAASHQRCWDVACGSGQASLGLARHFDRVDASDLSPAQVAAAPAHSNIHYQVAAAEDSGFPNACMDAIVVAAAIHWLDVPRFNEEALKVARPGGLMVWVGYDPPQGAPPALQLWLDQLYSERLSSWWPPQRHHVDNHYQNLPFPTISKTLPQELCISLKWSCEQLIGYIGTWSALRKATQEGHDLLPQLSMELQRLWPADQKTIPLIFPLMGRWGYLAR | not soluble
16 | MSLAIGDILRKSARRFPDRVALTDGGRSVTYTELERDANRFANALVARGLKPGAKISTVCNNSIEFVKALFGIHRAGLVWVPINTMLGPDDMGYILDHAGVKVAVIDDNLHGQPERRAALEARGIDLIAINLAGKAADTGLPVFDQLIEGLSEIEPDVAFDDRDLAMIIYTSGTTSRPKGAMHCHLAVTMAVMSNAIEMQLSRKDGITGQFPLFHCAAHVLLLSYLIVGGQMAIMRGFDPVACMEAIQRNKLTVFIGLPLMYQVILDHPRRKEFDLSSLRCCIYTMAPMPRPLLERAIAELCPTFVQPSGQTEMYPATTMSQPDRQLARFGNYWGESTLVNETAIMDDAGNLLPPGEVGEIVHRGPNVMLGYYKDPEATEAARKFGWHHTGDLALIDEHGEVLFLDRKKDMIKSGGENVASIKIEETLLAHPSVMNAAVVGLPHPQWGEAVSGFVKLKPGASATEAEIVEHCKKHLGGFQVPKLLRIVDEMPMTATGKLRKVELRNQFTDHFMLGQTEGHHHHHH | soluble
17 | MGSSHHHHHHSSGLVPRGSHMASMKQIKKLLVANRGEIAIRIFRAAAELDISTVAIYSNEDKSSLHRYKADESYLVGSDLGPAESYLNIERIIDVAKQANVDAIHPGYGFLSENEQFARRCAEEGIKFIGPHLEHLDMFGDKVKARTTAIKADLPVIPGTDGPIKSYELAKEFAEEAGFPLMIKATSGGGGKGMRIVREESELEDAFHRAKSEAEKSFGNSEVYIERYIDNPKHIEVQVIGDEHGNIVHLFERDCSVQRRHQKVVEVAPSVGLSPTLRQRICDAAIQLMENIKYVNAGTVEFLVSGDEFFFIEVNPRVQVEHTITEMVTGIDIVKTQILVAAGADLFGEEINMPQQKDITTLGYAIQCRITTEDPLNDFMPDTGTIIAYRSSGGFGVRLDAGDGFQGAEISPYYDSLLVKLSTHAISFKQAEEKMVRSLREMRIRGVKTNIPFLINVMKNKKFTSGDYTTKFIEETPELFDIQPSLDRGTKTLEYIGNVTINGFPNVEKRPKPDYELASIPTVSSSKIASFSGTKQLLDEVGPKGVAEWVKKQDDVLLTDTTFRDAHQSLLATRVRTKDMINIASKTADVFKDGFSLEMWGGATFDVAYNFLKENPWERLERLRKAIPNVLFQMLLRASNAVGYKNYPDNVIHKFVQESAKAGIDVFRIFDSLNWVDQMKVANEAVQEAGKISEGTICYTGDILNPERSNIYTLEYYVKLAKELEREGFHILAIKDMAGLLKPKAAYELIGELKSAVDLPIHLHTHDTSGNGLLTYKQAIDAGVDIIDTAVASMSGLTSQPSANSLYYALNGFPRHLRTDIEGMESLSHYWSTVRTYYSDFESDIKSPNTEIYQHEMPGGQYSNLSQQAKSLGLGERFDEVKDMYRRVNFLFGDIVKVTPSSKVVGDMALYMVQNDLDEQSVITDGYKLDFPESVVSFFKGEIGQPVNGFNKDLQAVILKGQEALTARPGEYLEPVDFEKVRELLEEEQQGPVTEQDIISYVLYPKVYEQYIQTRNQYGNLSLLDTPTFFFGMRNGETVEIEIDKGKRLIIKLETISEPDENGNRTIYYAMNGQARRIYIKDENVHTNANVKPKADKSNPSHIGAQMPGSVTEVKVSVGETVKANQPLLITEAMKMETTIQAPFDGVIKQVTVNNGDTIATGDLLIEIEKATD | soluble
